Source: a protein production outcome set (Wang et al. 2014)

Assay: label from the status in PepcDB records

MLRYSFRSIKRNFASSLLLVGALVAIFVASPLSFSMLSSIQAEVDANIKQYARGSYDLLIRPIGTQTAVETTLGVVEENYLALGEGGISLNEWETIKALDGVEVAAPVASLGYFAGETHTVAVEFPNNSSFIEGRFQTSDGLHTYPLQAGGSYYVLEQEGYYYGYEYVQQGNEEIPGSGGPPFFSMPVTYHLIVGIDQQEEEKLTGFNFSALNNSIPEGFRFYFDLDVERHIKIIYLKDATTPLTVQVDVAPIDWETADTERLKDELGLTYDEPLFISEQFPSLFTQFQDRHIGPIETYTFDLSEHMPPFSYDPVSLDYDGSMHEPIENAYGVSESSRFYQASPIDYDIQAGGRLKVKQVGDYEGIPIYRTIQEQGGAAYELHGIGKIPFLLYPVGHFTTAEYEHSLSASPLGIYQQAPSVLSDGTMLHETIAPGSFVNAPAHGLMALEDAAFIKGDAPIDAIRIRVAGITAYDQEAVDKMSQVATEIAKLGDYQIDVIAGASPAPMTMDVEGIGEVVQPWTSLGAAATIRDGWNGTNVLIAGLFLFVSISYLANRFHFRRHTKKEEQELLLDLGWKKRHIRWLYLMENSSLIFLSAAIASLILLAYIWLYQADWFILIFFVAVVVLTFLFSLIYVSMMRGVQKISFRRLKGQTVWIRNLFYYRRLLTLSIIQLASVALLLAFVVSSIAATIAQTGGTYLGVYINDAVFIPLVSIMVAALFLAVLTVGESTSAFLLLRKEELQTLRDIGWRIKDVHRLCLKESAVWTTGAIMGGVVISLLTVSVFYSLSLSFLLFAGVAVVLLSSIAIVTAGGMIRSSLRKMA
protein production: failed

MKPFMNNTKQLKRPLLNKQELALFAATILWGITFLVIHIAVRYSGPLFFVGFRFMVASLICGAIFWRSLKGITVYEIFAGMAIGLGMFLGYALQATGLQTIISSQSAFITALYVPIVPILQWIVFKKPPRLACWLGIIFAFIGLILISGKKSGSFDFSKGEILTLLGALAIAGEVILIGIFAHKVDSRRVTIIQLFFSGLFSFFCMPFIGESIPPFSWVWLNIGIGLALMSAIIQLAMNWAQKSISPTRATLIYAGEPVWAGIVGRLAGEHLSPLALLGGALILIGIVVAELQPSQWRKKKNNLKK
protein production: failed

MESTKQEEQGIYAATPPATGLLERLFKLRQHGTTVRTELAAGLTTFITMAYIIFVNPNIMADAGIDHGAAFVATCLAAALGCFLMGLYANWPVGLAPGMGLNAFFTYTVVGTMGYSWQIALGAVFISGVMFMLLTFSRVREWLLNSIPRSLRFAMGAGVGLFLGLIGLKTAGIVVASPATLIKLGHLTSPGPLLAALCFLMIAVLEYRRVFGGILISILSVTLVGWALGLVQYGGVFSAPPSLAPTFLAMDIAGAFNVTMISVILAFLFVHMFDTAGTLMGVAQRAHLVKEDGRIENLSKAMKADSASSVFGGMLGVPPVTSYVESAAGVAAGGRTGLTAVVVGVLFVAAMFFAPLAGMIPAFATAGALIYVAMLMMGGMAHIDWDEHTETIPAIVTVIMMPLTFSVADGIALGFITYVAMKVLTGKHREVSASLYALFVIFVAKFIFL
protein production: failed

MRLVSLLPSATEIIAALGLLPFLVGRSHECDYPPEVKALPVCTRARLNAQQSSLAIDRVVQELLRAALGIYDLELATLQALKPTHIITQDQCDVCAVTLPDVQRAIADLLEPPPQLISLQPHCLEDIWEDIRRVGLTLGVAPDPLLTVLKERMRACQRRVSDRPRRQVVAIEWIDPPMASGNWIPELIALAGGENMLGTAGKHSPYIEWSTLLAIDPEVILVMPCGFDLERTRQELDQALQTYPQWQQLRALQTGQLYILDGNAYFNRPGPRLVDSLEILVEILHPCPEPKFHGVGWRPYVGPSMAKMSDEG
protein production: failed

GSGKNLIMIQVEALQGFVVNKSINGKEITPNLNKWINKSLYFDNYFYQVAQGNTSDAEFMSLNSLYPAQSGAAYYTYAGNTFNSIPKDLGDKGYYTAALHGYNEGFWNRNVMYKSEKFDDFYGQTSYKNDEVVGMGLSDESFLNQSLAKMKTFKQPYFSFLITLSSHYPFNDTAGYEKYTMNKLDVGEYKDTLLGNYFEGIHYTDEQLGKFLDKLDKEGLTKNSIIVLYGDHFAIPKENINQLYSFEGIKDPTDLTWYEYQKVPMFIHFPDDEHKGVNHTYSGQMDIYPTIANLYNISNNYMFGEDILNVKDGDSTNVTFRNGSFTDGK
protein production: failed

MPQVDPELFDRGQFQAELALKSSPIAAFKKAIRQFREVLDNRFNSGRDIRRLIEDRAWCVDQILQQAWQRFDWGDDADIALVAVGGYGRGELHPYSDVDLLILLDSEDQESFREPIEGFLTLLWDIGLEVGQSVRSVQQCAEEARADLTVITTLMECRTICGPDSLRQRMLQVTGSAHMWPSKEFFLAKRHEQQRRHAKYNDTEYNLEPNVKGSPGGLRDIQTILWMARRQFGSLNLHALVREGFLVESECSMLASSQEFLWRVRYALHMLAGRAEDRLLFDHQRSIARLFGYEDNDVKLAVERFMQKYYRVVMAISELNDLIIQHFEEVILPCEQPVQIQPLNSRFQLRDGYIEVTHPNVFKRTPFALLEIFVLMAQHPEIKGVRADTIRLLRDSRHLIDDEFRHDIRNTSLFIELFKSSQGIHRNLRRMNRYGILGRYLPEFGHIIGQMQHDLFHIYTVDAHTLNLIKHLRKLNRPEMAEKYPLASKIIDRLPKPELIYIAGLYHDIAKGRGGDHSELGAVDAEAFCQSHQLPLWDTQLVSWLVQNHLVMSTTAQRKDLSDPQVIFDFAQLVGDQTHLDYLYVLTVADINATNPTLWNSWRASLLRQLYTETKRALRRGLENPVDREEQIRQTQTAALDQLVRNGIDQDDAEQLWSQLGDDYFLRHTAGDVAWHTEAILQHPDDGTPLVLIKETTQREFESGSQIFIYAADQHDFFAVTVAAMDQLNLSIQDARIITSTSQFTLDTYIVLDADGDSIGNNPERIAEIREGLIDALKNPDDYPTIIQRRVPRQLKHFAFAPQVTISTDALRQVSVLEVIAPDRPGLLARIGGIFLDFDLSVQNAKIATLGERVEDVFYITDARNQPLADPDLCKRLQAALVEQLSQDNGRDT
protein production: failed

MSLEKQIESYYQEIAQLIIDMIPEEWAEVRFYAQEDHDGWKIFFFHYLSASSDEWTKDIDIRDVIKVPQDEFMEKYNELSFCISDFRKDYAEAFGEPWMSFQMTFYASGKFNIDFYYDKNPFDTFLTRLAWQYEHFGTIPEDSFYKETLNEYLEEKAQGKRYPFLEPLKEEEGHHHHHH
protein production: not failed

DKSNKLQNLVAEQLVGCGFNEILNNSLTRAAYYDGLESYPSKNLVMLLNPLSADLNCMRQTLLFGGLESIAHNANRKNADLKFFEFGNCYHFDAEKKNPEKVLAPYSEDYHLGLWVTGKMVSNSWAHADENTSVYELKAYVENIFKRLGLDLHSLVVGNLSDDIYSTALTVNTKGGKRLATFGVVTKKMLKAFDVDNEVYYADLNWKELM
protein production: not failed

MQSDKVLNLPAGYFGIVLGTIGMGFAWRYASQVWQVSHWLGDGLVILAMIIWGLLTSAFIARLIRFPHSVLAEVRHPVLSSFVSLFPATTMLVAIGFVPWFRPLAVCLFSFGVVVQLAYAAWQTAGLWRGSHPEEATTPGLYLPTVANNFISAMACGALGYTDAGLVFLGAGVFSWLSLEPVILQRLRSSGELPTALRTSLGIQLAPALVACSAWLSVNGGEGDTLAKMLFGYGLLQLLFMLRLMPWYLSQPFNASFWSFSFGVSALATTGLHLGSGSDNGFFHTLAVPLFIFTNFIIAILLIRTFALLMQGKLLVRTERAVLMKAEDKE
protein production: not failed

MKYPIVPLTKFGLFRAQTYAVLKRPYLVTALVSYFMVALLVIIYLNKAPSFTSDMEMVLPGTGSSNSVSLDNVGQVVSQTNTPFSGGGFNPRVNYKEMLSSRGVRARAAKKLHLSLEDLGEPRIKLTEQTSIISLEMSANGQELAQAKTLALYESLQDELNNLRADEVLRRDQSIEQVLDRYRERMNITRNAIVDFQQRSIVVSTDQMDQLVRTLSGVREKHLYVKAETKQLQEYIYQLSDELGVSPKLAGQAFALQSDVEFRAYITELKESITQLTEYSSRWGVNHPKVKAQQKRLNFTRISINERSSQMYGVNSNEIFNSLNLDLNPKRSELFADLIDAYAKQKGQESMLEDLGRSALHLGDQLKIYSREIVELERLQREFNMAEAIFTSAAARLEASKSDVFASYPVLQMLTTPSYPMKQSSPKNIIAFIGAITGFIFITLGLIILSQRNKLIQIILKKEETTSSNS
protein production: failed

MAFRITSQLRPVGNQFGGSRRFATTVADGAKQTYNKFSIMGEFAPVAIIGGFVGLAVLMAGHSLKQQLMHAPAISTRKNRRAAVAEVDDPENCVSSADKFINKSWLRKVGQIQDKSKAILSDPTRPNPFTTPRNAETLNSVGVAPKGI
protein production: failed

MKKILAFLLIAAGSTLFFVFLFIFLSKVFSGEILLSRYIFRIGGFELRWYSTLILMGFLISYFVARKRAKNEGINLEEFDELIFYGVIAGIVGARLYYVLFNLKYYRSLWDALKIWEGGLAIHGAVIGALLTGFLYVRLKKPSFTFLQATDLFTSVLPLGQAIGRWGNFFNYEAFGVPTNLPWKMFVPEPYRPVVYKDYSFFHPTFLYESIWDLLVFFMLSVYFKRYRKRHGEVTCLYFVLYSLGRIVIERLRVDSLMIGNIKAAQLLSAVLILLGFTGFLILRSSQEPKRAF
protein production: failed

MACIHIESSHPPAWKTHSVQENKPANADDISNTTLPEHHDGGDGGIQETWAAIGDSGGRGGGYFAGESRKKLEKKKSQVLLEGYALDDQDDLTRAKSLTDDDLEELKGCLDLGFGFSYDEIPELCNTLPALELCYSMSQKFLDDKQQNHHKSQEEDDSSPPPTTTAPIANWKISSPAELESIFIFEPEKDRLCKNEVSAIVR
protein production: failed

MTSTVEFINRWQRIALLSQSLLELAQRGEWDLLLQQEVSYLQRIETVMEKQTPPGITRSIQDMVAGYIKQTLDNEQLLKGLLQQRLDELSSLIGQSTRQKSLNNAYGRLSGMLLVPDASGAS
protein production: failed

MMLTMGMLERYVLKRTMGALVGALAVLSAMVMLIAFVDIARNVGTRADASFLRLLYLTILQAPATILVLAPFIFLFGTMWAFVELNRRSELIAMRAAGISAWRFIMPAAASSFVIGLLTITLLNPLTTAMTAKFETERDRTMNGYLKEAPKGTWLRQGDDKTQIVIRARARELVDGSVRLRGVSLFVYTLNAKGVMDFTRRIEANEARLEPGFWRLSGVREATPGAGAIRSDSLSIPSNLDDRTASERFNTPQAVALWRLPATIQRTADAGFSAVPFKLRLQQDLATPLLFAAMSVLAAAFSLRLMRLGGLAMLAGSGVALGFGFFFFNELCSTLGRADVLAPFVAAWTPPTVALLVGFTLLCYTEDG
protein production: failed

MDWTMISGSRDESLHAARDYWRRLNESECFDIEGIEAPPGAIALIPYDCQLPNSFHPLPLWVKLYASAGLHRFNMLEVLVNERSVGKLNIIVPIARPKGVTTNERFIPCDCFSVDDKLPQWPSHDSFNDRKRFYSVKESELQNNDWINLYLELVLCAIQKVRISDSDLSKLKIVKAVIETKEDMVPPNERLNAKTAVVYITFKGLANARIAAGEHYERKAIIRRIFNEHTGHLSLLGDLIGEKKFVNIDPVTYFNSPAYLEDITHELPPESPWMDILAGTGSMDQID
protein production: failed

MEYLIYSLIAVIILTVGLNNIFKKQSKYFYMLATLISVVVTSYEIFKIWTGFKLEGIIFVLERSFMKGFVSTALFILVMFAGALSKKWGITKKLLRVRAEMAILASILILPHFIIYTYKFLVRLFSGKPLSILYISFIIVGLIAFIIMIPLFITSFKKVRVTMSPSKWKMVQRWAYPFYFLVYVHIILILFNKKVFNLNAVIIYTVIFLGYFILRICNNKKAIK
protein production: failed

DSLGREAKCYNELNGCTKIYDPVCGTDGNTYPNECVLCFENRKRQTSILIQKSGPC
protein production: failed

MNLKQAFIDNNSIRLGLSADTWQEAVRLAVQPLIDSKAVTSAYYDAIIASTEKYGPYYVLMPGMAMPHAEAGLGVNRNAFALITLTKPVTFSDGKEVSVLLTLAATDPSIHTTVAIPQIVALFELDNAIERLVACQSPKEVLEMVEESKDSPYLEGMDLNA
protein production: not failed

MPLRSAGSGKASRDAVHHPLFARSYARISVTAETRLGMGGVRDRLLAGLSGRVIEIGAGNGLNFAHYPGAVSEVVAIEPERLLRQLAVEAALRCDVPVDVVPGAAEALPVKSEAFDAAVVSLVLCSVRDVSRALGELRRVLRPGGTLRFFEHGAGGGRAMAATQRALDRTVWPRLNGGCHLTRDAVSAVREAGFELGPYRRMLLPEKGPRLPTSYCVLGTAWRPGSAD
protein production: failed
